Source: patent US20260193363A1

Assays:
[1] = molecular target: EGFR overexpressed on cancer cell lines MDA-MB-468 and A431 (human) (UniProt P00533); experiment: flow cytometry, antibodies added at 2 µg/ml, MDA-MB-468 cells
[2] = molecular target: EGFR overexpressed on cancer cell lines MDA-MB-468 and A431 (human) (UniProt P00533); experiment: flow cytometry, antibodies added at 2 µg/ml, A431 cells
[3] = molecular target: EGFRvIII on F98npEGFRvIII cells (rat glioma F98 transfected with nonphosphorylated EGFRvIII); experiment: flow cytometry, antibodies added at 2 µg/ml, F98-npEGFRvIII cells
[4] = molecular target: wild-type EGFR on F98EGFR cells (rat glioma F98 transfected with full-length EGFR) (UniProt P00533); experiment: flow cytometry, antibodies added at 2 µg/ml, F98-EGFR cells
[5] = molecular target: wtEGFR at physiological levels on WI-38 cells (human) (UniProt P00533); experiment: flow cytometry, antibodies added at 2 µg/ml, WI-38 cells
[6] = molecular target: EGFRvIII on DKMG-EGFRvIII cells (human glioblastoma line DKMG transduced with EGFRvIII); experiment: flow cytometry on DKMG-EGFRvIII cells, antibody at 10 µg/ml
[7] = molecular target: EGFR and EGFRvIII on GBM39 cells (patient derived xenograft glioblastoma line); experiment: flow cytometry on GBM39 cells, antibody at 0.2 µg/ml
[8] = molecular target: wtEGFR at physiological levels on WI-38 cells (human) (UniProt P00533); experiment: flow cytometry on WI-38 cells, antibody at 2 µg/ml
[9] = molecular target: EGFR and EGFRvIII on GBM39 cells (patient derived xenograft glioblastoma line); experiment: flow cytometry on GBM39 cells, antibody at 2 µg/ml
[10] = molecular target: EGFR and EGFRvIII on GBM39 cells (patient derived xenograft glioblastoma line); experiment: flow cytometry on GBM39 cells, antibody at 20 µg/ml
[11] = molecular target: wild-type EGFR on F98EGFR cells (rat glioma F98 transfected with full-length EGFR) (UniProt P00533); experiment: flow cytometry on F98EGFR cells, antibody at 2 µg/ml
[12] = molecular target: EGFRvIII on DKMG-EGFRvIII cells (human glioblastoma line DKMG transduced with EGFRvIII); experiment: flow cytometry on DKMG-EGFRvIII cells, antibody at 0.1 µg/ml
[13] = molecular target: EGFRvIII on DKMG-EGFRvIII cells (human glioblastoma line DKMG transduced with EGFRvIII); experiment: flow cytometry on DKMG-EGFRvIII cells, antibody at 1 µg/ml

Median : PE-A [1]	Median : PE-A [2]	Median : PE-A [3]	Median : PE-A [4]	Median : PE-A [5]	median fluorescent intensity [6]	median fluorescent intensity [7]	GeoMean [8]	median fluorescent intensity [9]	median fluorescent intensity [10]	GeoMean [11]	median fluorescent intensity [12]	median fluorescent intensity [13]	Substance
34.9	34.3	26.2	32.6	48	–	–	–	–	–	–	–	–	IgG1 Iso Con (antibody)
34.1	31.2	26.9	33.5	47.6	–	–	–	–	–	–	–	–	IgG2 Iso Con (antibody)
6860	10700	4470	4040	2720	13500	12700	2450	29800	30300	3700	12900	14300	monoclonal antibody ma528
